Assay results taken from patent US20200024331A1 (published 2020).

B1: CC3 (VHH)
VHH: EVQLQASGGGSVQAGGSLRLSCVTSQNLFEYYTMGWYRQVPGSQRERVALINNGGSTVAGSVEGRFTISRDHAKNSVYLQMNYLKPEDSAVYYCRAFGPADYWGQGTQVTVSS
B2: CA6 (VHH)
VHH: EVQLQASGGGLVRPGGSLRLSCAASGSFFTIDTMAWYRQAPGRRRELVARQSSGRSPDYDDSVVGRFTISRDIAKSSVYLQMDSLQPEDTALYYCYQSIRPWPGSSYEAHWGQGIQVIVSS

How the values were obtained:
[1] = biological target: Chikungunya virus E1 protein (Chikungunya virus, UniProt Q8JUX5 810-1224); assay: SPR
[2] = biological target: Chikungunya virus-like particles (CHIKV VLP) (Chikungunya virus, UniProt Q8JUX5 810-1248; Q8JUX5 326-748); assay: SPR
Sequence of Chikungunya virus-like particles (CHIKV VLP) (Q8JUX5 810-1248, chain 1 of 2): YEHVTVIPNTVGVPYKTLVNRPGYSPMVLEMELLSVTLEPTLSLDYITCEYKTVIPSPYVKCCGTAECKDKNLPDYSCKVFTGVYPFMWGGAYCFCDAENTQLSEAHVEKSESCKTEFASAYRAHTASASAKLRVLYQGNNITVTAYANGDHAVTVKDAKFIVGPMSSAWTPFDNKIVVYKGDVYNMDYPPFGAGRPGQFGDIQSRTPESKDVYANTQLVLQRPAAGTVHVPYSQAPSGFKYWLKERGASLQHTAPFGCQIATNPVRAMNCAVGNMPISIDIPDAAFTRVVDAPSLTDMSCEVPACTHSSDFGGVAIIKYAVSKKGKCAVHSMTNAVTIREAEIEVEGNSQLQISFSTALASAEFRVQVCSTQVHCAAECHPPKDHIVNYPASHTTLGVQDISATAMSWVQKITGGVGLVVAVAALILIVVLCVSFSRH
Sequence of Chikungunya virus-like particles (CHIKV VLP) (Q8JUX5 326-748, chain 2 of 2): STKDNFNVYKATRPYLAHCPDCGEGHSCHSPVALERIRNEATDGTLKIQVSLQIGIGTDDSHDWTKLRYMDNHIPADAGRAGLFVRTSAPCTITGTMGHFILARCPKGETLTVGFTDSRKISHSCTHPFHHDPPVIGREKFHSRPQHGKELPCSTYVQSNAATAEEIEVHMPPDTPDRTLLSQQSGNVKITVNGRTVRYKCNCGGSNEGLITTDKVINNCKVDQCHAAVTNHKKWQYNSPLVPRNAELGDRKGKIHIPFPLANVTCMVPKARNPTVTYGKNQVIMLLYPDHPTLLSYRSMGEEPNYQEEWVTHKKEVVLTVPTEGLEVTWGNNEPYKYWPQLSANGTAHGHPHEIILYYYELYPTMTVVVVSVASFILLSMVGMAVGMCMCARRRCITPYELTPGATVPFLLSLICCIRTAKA

Sequence of Chikungunya virus E1 protein (Q8JUX5 810-1224): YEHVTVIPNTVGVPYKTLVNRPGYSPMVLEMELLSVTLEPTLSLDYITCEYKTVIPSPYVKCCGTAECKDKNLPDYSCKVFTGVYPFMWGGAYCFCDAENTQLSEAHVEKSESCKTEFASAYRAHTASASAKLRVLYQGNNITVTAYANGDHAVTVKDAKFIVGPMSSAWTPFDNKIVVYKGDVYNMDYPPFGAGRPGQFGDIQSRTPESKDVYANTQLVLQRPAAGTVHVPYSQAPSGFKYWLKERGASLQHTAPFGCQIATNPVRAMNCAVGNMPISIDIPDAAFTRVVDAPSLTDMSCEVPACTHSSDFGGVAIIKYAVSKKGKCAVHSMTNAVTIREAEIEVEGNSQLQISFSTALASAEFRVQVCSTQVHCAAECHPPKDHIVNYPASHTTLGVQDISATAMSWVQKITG

Row | Binder | Kd [1] [nM] | Kd [2] [nM]
1 | B1 | 3.04 | 1.2
2 | B2 | 0.132 | 
